The results in this text go back to US20210221907A1 (published 2021).

Bounds are passed on as bounds.

Experiment [1] deals with T1, recombinant TROP2 protein (UniProt P09758 27-274, limits assumed).
T1 construct: also called rProtein
T1 sequence (looked up): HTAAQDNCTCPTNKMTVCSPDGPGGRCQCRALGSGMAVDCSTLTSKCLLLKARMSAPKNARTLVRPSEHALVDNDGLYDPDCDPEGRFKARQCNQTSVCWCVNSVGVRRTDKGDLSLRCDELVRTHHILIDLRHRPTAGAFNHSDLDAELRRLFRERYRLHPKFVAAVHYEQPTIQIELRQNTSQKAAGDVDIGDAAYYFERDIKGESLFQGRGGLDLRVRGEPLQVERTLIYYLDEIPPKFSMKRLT
Nature of the experiment: ELISA titration, antibody with varying concentrations of recombinant TROP2 protein. How it is done: Antibodies were tested in an antigen binding assay using ELISA titration experiments. Antibodies were incubated with varying concentrations of recombinant TROP2 protein [rProtein].
For orientation: ELISA stands for enzyme-linked immunosorbent assay.

In experiment [2] the target is T2, TROP2 on MDA-468 cells over-expressing TROP2 (TROP2+ MDA-468) (UniProt P09758 27-323).
T2 sequence (looked up): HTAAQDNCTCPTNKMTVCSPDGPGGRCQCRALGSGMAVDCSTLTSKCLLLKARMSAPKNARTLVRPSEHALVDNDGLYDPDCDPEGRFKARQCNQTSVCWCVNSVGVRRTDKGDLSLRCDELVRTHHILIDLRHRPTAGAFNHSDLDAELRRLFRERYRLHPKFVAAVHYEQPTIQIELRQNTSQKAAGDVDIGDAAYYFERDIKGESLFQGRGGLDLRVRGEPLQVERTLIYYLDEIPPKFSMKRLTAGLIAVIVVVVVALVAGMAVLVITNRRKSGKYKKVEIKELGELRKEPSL
Nature of the experiment: cell-based or functional assay.

B1: TROP2-Ab8 (antibody, V domains shown)
VH: QVQLQQSGPEVVKPGASVKMSCKASGYRFTDYVINWVKQRTGQGLEWIGQIYPGSDSFHYNKNFKGKATLTADKSSNTAYMQLNSLTSEDSAVYFCARFFEGLAYWGQGTLVTVSA
VL: DIKMTQSPSSMYAFLGERVTITCKASQGINNYLSWFQLKPGKSPKSLIYRANRLVDGVPSRFSGSGSGQDYSLTISSLDYEDMGIYYCLQYDEFPLTFGGGTKLELK
notes: Monoclonal antibody from a hybridoma clone
In the case of B1, the “rProtein ELISA Affinity” value in experiment [1] was below 0.1 nM. Further, in experiment [2], the “Indirect Cytotoxicity Cell viability %” value is 26% and the “Indirect Cytotoxicity IC50” value turned out to be 0.0271 nM.

B2: TROP2-Ab22 (antibody, V domains shown)
VH: QVQLQQSGPELVKPGASVKMSCKASGYTFTDYVINWVKQRPGQGLEWVGQIYPGSDGTYYNEPFKGEATLTADKSSNTAYMQLSSLTSEDSAVYFCARFFEGFAYWGQGTLVTVSA
VL: DIKMTQSPSSMFASLGERVTITCKASQDINWYLSWFQQKPGKSPKTLIYRANRLVDGVPSRFSGSGSGQDYSLTISSLDYEDMGVYYCLQYEEFPLTFGAGTKLELK
notes: as for B1
As to B2, the “rProtein ELISA Affinity” value in experiment [1] turned out to be 0.19 nM. Further, in experiment [2], the “Indirect Cytotoxicity Cell viability %” value was 34% and the “Indirect Cytotoxicity IC50” value came out at 0.0587 nM.

B3: TROP2-Ab7 (antibody, V domains shown)
VH: QVQLQQSGPEVVKPGASVKMSCKASGYRFTDYVINWVKQRSGQGLEWIGQIYPGSDTFHYNKNFKGKATLTADKSSNTAYMQLNSLTSEDSAVYFCARFFEGFAYWGQGTLVTVSA
VL: DIKMTQSPSSMYAFLGERVTITCKASQGINNYLSWFHLKPGKSPKSLIYRANRLVDGVPSRFSGSGSGQDYSLTISSLDYEDVGIYYCLQYDEFPLTFGGGTKLELK
notes: Monoclonal antibody from a hybridoma clone (V regions amplified with mouse Ig primers)
As for B3, the “rProtein ELISA Affinity” value in experiment [1] is 0.1 nM. Moreover, in experiment [2], the “Indirect Cytotoxicity Cell viability %” value amounted to 34% and the “Indirect Cytotoxicity IC50” value turned out to be 0.044 nM.

B4: TROP2-Ab51 (antibody, V domains shown)
VH: QVQLQQSGPEVVKPGASVKMSCRASGYRFTDYVINWVKQRTGQGLEWIGQIYPGSDSFHYNKNFKGKATLTADKSSNTAYMQLNSLTSEDSAVYFCARFFEGFAYWGQGTLVTVSA
VL: DIKMTQSPSSMYAFLGERVTITCKASQGINNYLSWFQLKPGKSPKSLIYRANRLVDGVPSRFSGSGSGQDYSLTISSLDYEDMGIYYCLQYDEFPLTFGGGTKLELK
notes: as for B1
In the case of B4, the “rProtein ELISA Affinity” value in experiment [1] is below 0.1 nM. In experiment [2], the “Indirect Cytotoxicity Cell viability %” value was 39% and the “Indirect Cytotoxicity IC50” value amounted to 0.0567 nM.

B5: TROP2-Ab46 (antibody, V domains shown)
VH: QVQLQQPGAELVRPGASVRLSCKSSGYTFTSYWINWVKQRPGQGLEWIGNIFPSHSYTNYNQKFRDKATLTVDKSSSTAYLQLSSPTSDDSAVYYCTRGSGFDYWGQGTALTVSS
VL: DILLTQSPAILSVSPGERVSFSCRASQNIGTSIHWYQQRTNGSPRLLISYASESISGIPSRFSGSGSGTDFTLIINSVESEDIADYYCQHSYSWPFTFGSGTKLEVK
notes: as for B1
B5: in experiment [1], the “rProtein ELISA Affinity” value was below 0.1 nM. In experiment [2], the “Indirect Cytotoxicity Cell viability %” value is 27% and the “Indirect Cytotoxicity IC50” value turned out to be 0.0672 nM.

B6: TROP2-Ab50 (antibody, V domains shown)
VH: QVQLQQSGAELVRPGTSVKISCKASGYTFTNYWLDWIKQRPGQGLEWIGNIFPGGDYTNYNEEFRGKATLTADTSSRTAFMQLSSLTSEDSAVYFCARSSYDYWGQGTLVTVSA
VL: DILLTQSPAILSVSPGERVSFSCRASQNIGTSIHWYQQRTNGSPRLLIKYSSESISGIPSRFSGSGSGTDFSLTINSVESEDIGDYYCQHSYTWPFTFGSGTKLEIK
notes: Monoclonal antibody from a hybridoma clone; also called TROP2 -Ab0
With B6, the “rProtein ELISA Affinity” value in experiment [1] is below 0.1 nM. Moreover, in experiment [2], the “Indirect Cytotoxicity Cell viability %” value was 45% and the “Indirect Cytotoxicity IC50” value came out at 0.0992 nM.
